From the supplement of paper PMC11316812
± gives the standard deviation of the averaged measurements.

What was measured:
[1] = test system: MCF7; assay: percentage of EdU-negative (G0-arrested) nuclei per well, 72 h; higher = more G0 arrest; settings: reference: sequence is the full UniProt precursor, the tested protein was the secreted form or ectodomain
[2] = test system: hTERT-HMEC; assay: as above; settings: reference: sequence is the full UniProt precursor, the tested protein was the secreted form or ectodomain
[3] = protein concentration 0.03125 µM
[4] = protein concentration 0.3125 µM
[5] = protein concentration 0.0225 µM
[6] = protein concentration 0.0166175 µM
[7] = protein concentration 0.166175 µM
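Note: secreted proteins added to cultured cells, EdU pulse at the end, nuclei found by Hoechst imaging, EdU status from nuclear versus surrounding ring intensity ratio, PBS as neutral control.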

| Sequence | percentage of EdU-negative [1, 5] [%] | percentage of EdU-negative ([1]; protein concentration 0.225 µM) [%] | percentage of EdU-negative [2, 5] [%] | percentage of EdU-negative ([2]; protein concentration 0.225 µM) [%] | other results |
| --- | --- | --- | --- | --- | --- |
| MDSDETGFEHSGLWVSVLAGLLLGACQAHPIPDSSPLLQFGGQVRQRYLYTDDAQQTEAHLEIREDGTVGGAADQSPESLLQLKALKPGVIQILGVKTSRFLCQRPDGALYGSLHFDPEACSFRELLLEDGYNVYQSEAHGLPLHLPGNKSPHRDPAPRGPARFLPLPGLPPALPEPPGILAPQPPDVGSSDPLSMVGPSQGRSPSYAS [Q9NSA1] |  |  |  |  | percentage of EdU-negative [1, 3]: 25 ± 1.2%; percentage of EdU-negative [1, 4]: 23.9 ± 1.2%; percentage of EdU-negative [2, 3]: 4.59 ± 0.26%; percentage of EdU-negative [2, 4]: 5.63 ± 0.48% |
| MARAAALLPSRSPPTPLLWPLLLLLLLETGAQDVRVQVLPEVRGQLGGTVELPCHLLPPVPGLYISLVTWQRPDAPANHQNVAAFHPKMGPSFPSPKPGSERLSFVSAKQSTGQDTEAELQDATLALHGLTVEDEGNYTCEFATFPKGSVRGMTWLRVIAKPKNQAEAQKVTFSQDPTTVALCISKEGRPPARISWLSSLDWEAKETQVSGTLAGTVTVTSRFTLVPSGRADGVTVTCKVEHESFEEPALIPVTLSVRYPPEVSISGYDDNWYLGRTDATLSCDVRSNPEPTGYDWSTTSGTFPTSAVAQGSQLVIHAVDSLFNTTFVCTVTNAVGMGRAEQVIFVRETPNTAGAGATGGIIGGIIAAIIATAVAATGILICRQQRKEQTLQGAEEDEDLEGPPSYKPPTPKAKLEAQEMPSQLFTLGASEHSPLKTPYFDAGASCTEQEMPRYHELPTLEERSGPLHPGATSLGSPIPVPPGPPAVEDVSLDLEDEEGEEEEEYLDKINPIYDALSYSSPSDSYQGKGFVMSRAMYV | 21.9 ± 1.3 | 22.8 ± 0.43 | 4.75 ± 0.29 | 5.33 ± 0.83 |  |
| MDLSRPRWSLWRRVFLMASLLACGICQASGQIFITQTLGIKGYRTVVALDKVPEDVQEYSWYWGANDSAGNMIISHKPPSAQQPGPMYTGRERVNREGSLLIRPTALNDTGNYTVRVVAGNETQRATGWLEVLELGSNLGISVNASSLVENMDSVAADCLTNVTNITWYVNDVPTSSSDRMTISPDGKTLVILRVSRYDRTIQCMIESFPEIFQRSERISLTVAYGPDYVLLRSNPDDFNGIVTAEIGSQVEMECICYSFLDLKYHWIHNGSLLNFSDAKMNLSSLAWEQMGRYRCTVENPVTQLIMYMDVRIQAPHEDLTCCPQRFLHLRIHGDVPHHADSAGWRLHLWSPDPCSDQPLLNQDKSGSMSVHPRPEDKTRRASR [A8MTB9] | 28.6 ± 0.05 | 27.4 ± 0.32 | 4.89 ± 0.18 | 4.46 ± 0.032 |  |
| MERAAPSRRVPLPLLLLGGLALLAAGVDADVLLEACCADGHRMATHQKDCSLPYATESKECRMVQEQCCHSQLEELHCATGISLANEQDRCATPHGDNASLEATFVKRCCHCCLLGRAAQAQGQSCEYSLMVGYQCGQVFQACCVKSQETGDLDVGGLQETDKIIEVEEEQEDPYLNDRCRGGGPCKQQCRDTGDEVVCSCFVGYQLLSDGVSCEDVNECITGSHSCRLGESCINTVGSFRCQRDSSCGTGYELTEDNSCKDIDECESGIHNCLPDFICQNTLGSFRCRPKLQCKSGFIQDALGNCIDINECLSISAPCPIGHTCINTEGSYTCQKNVPNCGRGYHLNEEGTRCVDVDECAPPAEPCGKGHRCVNSPGSFRCECKTGYYFDGISRMCVDVNECQRYPGRLCGHKCENTLGSYLCSCSVGFRLSVDGRSCEDINECSSSPCSQECANVYGSYQCYCRRGYQLSDVDGVTCEDIDECALPTGGHICSYRCINIPGSFQCSCPSSGYRLAPNGRNCQDIDECVTGIHNCSINETCFNIQGGFRCLAFECPENYRRSAATLQQEKTDTVRCIKSCRPNDVTCVFDPVHTISHTVISLPTFREFTRPEEIIFLRAITPPHPASQANIIFDITEGNLRDSFDIIKRYMDGMTVGVVRQVRPIVGPFHAVLKLEMNYVVGGVVSHRNVVNVHIFVSEYWF |  |  |  |  | percentage of EdU-negative [1, 6]: 27.1 ± 0.61%; percentage of EdU-negative [1, 7]: 26.7 ± 1.6%; percentage of EdU-negative [2, 6]: 3.95 ± 0.058%; percentage of EdU-negative [2, 7]: 5.63 ± 0.19% |
| MRPQGPAASPQRLRGLLLLLLLQLPAPSSASEIPKGKQKAQLRQREVVDLYNGMCLQGPAGVPGRDGSPGANGIPGTPGIPGRDGFKGEKGECLRESFEESWTPNYKQCSWSSLNYGIDLGKIAECTFTKMRSNSALRVLFSGSLRLKCRNACCQRWYFTFNGAECSGPLPIEAIIYLDQGSPEMNSTINIHRTSSVEGLCEGIGAGLVDVAIWVGTCSDYPKGDASTGWNSVSRIIIEELPK [Q96CG8] | 25.9 ± 1.8 | 22.2 ± 3.5 | 5.305 ± 0.023 | 4.81 ± 1.6 |  |
| MSLMVVSMVCVGFFLLQGAWPHEGVHRKPSLLAHPGPLVKSEETVILQCWSDVRFQHFLLHREGKFKDTLHLIGEHHDGVSKANFSIGPMMQDLAGTYRCYGSVTHSPYQLSAPSDPLDIVITGLYEKPSLSAQPGPTVLAGESVTLSCSSRSSYDMYHLSREGEAHERRFSAGPKVNGTFQADFPLGPATHGGTYRCFGSFRDSPYEWSNSSDPLLVSVTGNPSNSWPSPTEPSSETGNPRHLHVLIGTSVVIILFILLLFFLLHRWCCNKKNAVVMDQEPAGNRTVNREDSDEQDPQEVTYAQLNHCVFTQRKITRPSQRPKTPPTDIIVYTELPNAEP | 22.6 ± 0.43 | 26.6 ± 2.4 | 5.55 ± 0.17 | 11.3 ± 1.1 |  |
| MARAHWGCCPWLVLLCACAWGHTKPVDLGGQDVRNCSTNPPYLPVTVVNTTMSLTALRQQMQTQNLSAYIIPGTDAHMNEYIGQHDERRAWITGFTGSAGTAVVTMKKAAVWTDSRYWTQAERQMDCNWELHKEVGTTPIVTWLLTEIPAGGRVGFDPFLLSIDTWESYDLALQGSNRQLVSITTNLVDLVWGSERPPVPNQPIYALQEAFTGSTWQEKVSGVRSQMQKHQKVPTAVLLSALEETAWLFNLRASDIPYNPFFYSYTLLTDSSIRLFANKSRFSSETLSYLNSSCTGPMCVQIEDYSQVRDSIQAYSLGDVRIWIGTSYTMYGIYEMIPKEKLVTDTYSPVMMTKAVKNSKEQALLKASHVRDAVAVIRYLVWLEKNVPKGTVDEFSGAEIVDKFRGEEQFSSGPSFETISASGLNAALAHYSPTKELNRKLSSDEMYLLDSGGQYWDGTTDITRTVHWGTPSAFQKEAYTRVLIGNIDLSRLIFPAATSGRMVEAFARRALWDAGLNYGHGTGHGIGNFLCVHEWPVGFQSNNIAMAKGMFTSIEPGYYKDGEFGIRLEDVALVVEAKTKYPGSYLTFEVVSFVPYDRNLIDVSLLSPEHLQYLNRYYQTIREKVGPELQRRQLLEEFEWLQQHTEPLAARAPDTASWASVLVVSTLAILGWSV | 23.2 ± 0.31 | 26.8 ± 0.78 | 5.4 ± 1.8 | 6.21 ± 0.83 |  |
